Reference: patent publication US12356911B2, “Group of UDP-glycosyltransferase for catalyzing carbohydrate chain elongation and application thereof” (GSYNBIOT (SHANGHAI) CO., LTD, priority 2017, dated 2025)
Positions count from the first letter of the chain named.

B1: GT29-46: Ginseng UDP-glycosyltransferase, 442 amino acids, SEQ ID NO.: 100 (protein)
chain: MDNQEGRISIALLPFLAHGHISPFFELAKQLAKRNCNVFLCSTPINLSSIKNKDSSASIKLVELHLPSSPDLPPHYHTTNGLPSHLMVPLINAFETAGPTFSEILKTLNPDLLIYDFNPSWAPEIASSHNIPAVYFLTTAAASSSIGLHAFKNPGEKYPFPDFYDNSNNTPEPPSADNMKLLHDFIACFERSCDIILIKSFIELEGKYIDLLSTLSDKTLVPVGPLVQDPMGHNEDPKTEQIINWLDKRAESTVVFVYFGSEYFLSNEELEEVAIGLEISMVNFIWAVRLIEGEKKGVLPEGFVQRVGDRGLVVEGWAPQARILGHSSTGGFVSHCGWSSIAESMKFGVPVIAMARHLDQPLNGKLAAEVGVGMEVVRDENGKYKREGIAEVIRKVVVEKSGEVMRRKARELSEKMKEKGEEEIDRAVEELVQICKKKKDAQ
modifications: primer
B2: PNUGT29-14: Panax notoginseng glycosyltransferase, 447 amino acids, SEQ ID NO: 57 (protein)
chain: MYIEKGRISIVMLPFLAHGHISPFFELAKHLSKRNCNIFLCSTPINLSSIKNRVSDKDSSASIKLVELHLPSSPDLPPQYHTTNGLPSHLMVPLKNAFETVGPTFSEILKTLDPDLLIYDFNPSWAPEIALSHNIPAVYFLTSAAATSSVALRALKNPGEKYPFPDFYDNSNITPEPPSADKMKLFHDFVACFKRSCDIILIKSFRELEGKYIDLLSTLSKKTLVPVGPLVQDPLGHDEDPKTGHLINWLDKRAESTVVFVCFGSEYFPSNEELEEVAIGLEISMVNFILAVRFLEGEKKGVLPEGFVQRVGDRGLVVEGWAPQARILGHSSTGGFVSHCGWSSIMESVKFGVPVIAMARHLDQPLNAKLAAEVGVGMEVVRDENGKYKREAIAEVIRKVVMEKNGEVIRRKARELSEKMKETGEQEIGRAVEELVQICKMKKDAQY
modifications: Panax notoginseng
B3: PNUGT29-15: Panax notoginseng glycosyltransferase, 447 amino acids, SEQ ID NO: 59 (protein)
chain: B2 chain with Y2D, P234H, K389T, E418D, T423K
modifications: Panax notoginseng
B4: PNUGT29-3: Panax notoginseng glycosyltransferase, 447 amino acids, SEQ ID NO: 43 (protein)
chain: B2 chain with Y2D
B5: PNUGT29-1: Panax notoginseng glycosyltransferase, 447 amino acids, SEQ ID NO: 39 (protein)
chain: B2 chain with Y2D, N52S, K389T, E418D, T423K
modifications: Panax notoginseng
B6: PNUGT29-5: Panax notoginseng glycosyltransferase, 447 amino acids, SEQ ID NO: 47 (protein)
chain: B2 chain with Y2D, K389T, E418D, T423K, K442M
modifications: Panax notoginseng
B7: PNUGT29-4: Panax notoginseng glycosyltransferase, 447 amino acids, SEQ ID NO: 45 (protein)
chain: B2 chain with Y2D, K389T, E418D, T423K
modifications: Panax notoginseng
B8: PNUGT29-6: Panax notoginseng glycosyltransferase, 447 amino acids, SEQ ID NO: 49 (protein)
chain: B2 chain with Y2D, D56G, K389T, E418D, T423K
modifications: Panax notoginseng
B9: PNUGT29-7: Panax notoginseng glycosyltransferase, 447 amino acids, SEQ ID NO: 51 (protein)
chain: B2 chain with Y2D, L117F, K389T, E418D, T423K
modifications: Panax notoginseng
B10: GT29-45: Ginseng UDP-glycosyltransferase, 448 amino acids, SEQ ID NO.: 98 (protein)
chain: MDIEKGRISIVMLPFLAHGHISPFFELAKHLSKRNCNIFLCSTPINLSSIKNRVSDKDSSASIKLVELHLPSSPDLPPHYHTTNGLPSHLMVPLRNAFETAAPTFSEILKTLNPDLLIYDFNPSWAPEIASSHNIPAVYFLTSAAATSSMGLHAFKNSGEKYPFPDFYDNSNITPEPPSADKMKLFHDFVACFKRSCDIILIKSFRELEGKYIDFLSTLSKKTLVPVGPLVQDPMGHDEDPKTGHLINWLDKRAESTVVFVCFGSEYFPSNEELEELAIGLEISMVSFILAVRFPEGEKKGILPEGFVQRVGDRGLVVEGWAPQARILGHSSTGGFVSHCGWSSIMESVKFGVPVIAMARHLDQPLNAKLAAEVGVGMEVMRDENGKYKREAIAEVIRKVVMEKNGEVMRRKARELSEKMKVKGEQEIGRAVEELVQICKKKKQHAQY
modifications: Panax ginseng
B11: PNUGT29-2: Panax notoginseng glycosyltransferase, 442 amino acids, SEQ ID NO: 41 (protein)
chain: MDNQKGRISIALLPFLAHGHISPFFELAKQLAKRNCNVFLCSTPINLSSIKNKDSSASVKLVELHLPSSPDLPPHYHTTNGLPSHLMVPLRNAFETVGPTFSEILKTLNPDLLIYDFNPSWAPEIASSHNIPAVYFLTTAAASSSIGLHAFKNPGEKYPFPDFYDNSNITPEPPSADNMKLLHDFIACFERSCDIILIKSFRELEGKYIDLLSTLSDKTLVPVGPLVQDPMGHNEDPKTEQIINWLDKRAESTVVFVCFGSEYFLSNEELEEVAIGLEISMVNFIWAVRLIEGEKKGVLPEGFVQRVGDRGLVVEGWAPQARILGHSSTGGFVSHCGWSSIAESMRFGVPVIAMARHLDQPLNAKLAAEVGVGMEVVRDDNGKYKREGIAEVIRKVVVEKSGEVIRRKARELSEKMKEKGEQEIDRAVEELVQICKKKKDAQ
modifications: Panax notoginseng

Test: In vitro transglycosylation at C-3, Rh2 as glycosyl acceptor, UDP-glucose as donor
Assay type: biochemical
Details: crude enzyme (E. coli lysate supernatant); TLC, FIG. 13, FIG. 15
Source text: (§1) Cell lysate of recombinant E. coli with empty vector pET28a was used as a control.

Molecule	product formation from Rh2 and UDP-glucose (Rg3)
B1	can all catalyze the extension of a glucosyl at the C-3 glycosyl of Rh2 to generate Rg3
B2	can catalyze the extension of a glucosyl at the C-3 glycosyl of Rh2 to generate Rg3
B3	can catalyze the extension of a glucosyl at the C-3 glycosyl of Rh2 to generate Rg3
B4	can catalyze the extension of a glucosyl at the C-3 glycosyl of Rh2 to generate Rg3
B5	can catalyze the extension of a glucosyl at the C-3 glycosyl of Rh2 to generate Rg3
B6	can catalyze the extension of a glucosyl at the C-3 glycosyl of Rh2 to generate Rg3
B7	can catalyze the extension of a glucosyl at the C-3 glycosyl of Rh2 to generate Rg3
B8	can catalyze the extension of a glucosyl at the C-3 glycosyl of Rh2 to generate Rg3
B9	can catalyze the extension of a glucosyl at the C-3 glycosyl of Rh2 to generate Rg3
B10	can all catalyze the extension of a glucosyl at the C-3 glycosyl of Rh2 to generate Rg3
B11	can catalyze the extension of a glucosyl at the C-3 glycosyl of Rh2 to generate Rg3

Test: In vitro transglycosylation at C-20, CK as glycosyl acceptor, UDP-glucose as donor
Assay type: biochemical
Details: crude enzyme (E. coli lysate supernatant); TLC/HPLC, FIG. 2, 3, 12, 16
Source text: as §1
As shown in FIG. 16: Protopanaxadiol Ginsenoside CK is used as a glycosyl acceptor, and UDP-glucose is used as a glycosyl donor.

Molecule	product formation from CK and UDP-glucose (Gypenoside LXXV)
B1	can catalyze the C-20 glycosyl of CK to extend a glucosyl to produce Gypenoside LXXV
B2	can catalyze the extension of a glucosyl at the C-20 glycosyl to generate Gypenoside LXXV
B3	can catalyze the extension of a glucosyl at the C-20 glycosyl to generate Gypenoside LXXV
B4	can catalyze the extension of a glucosyl at the C-20 glycosyl to generate Gypenoside LXXV
B5	can catalyze the extension of a glucosyl at the C-20 glycosyl to generate Gypenoside LXXV
B6	can catalyze the extension of a glucosyl at the C-20 glycosyl to generate Gypenoside LXXV
B7	can catalyze the extension of a glucosyl at the C-20 glycosyl to generate Gypenoside LXXV
B8	can catalyze the extension of a glucosyl at the C-20 glycosyl to generate Gypenoside LXXV
B9	can catalyze the extension of a glucosyl at the C-20 glycosyl to generate Gypenoside LXXV
B10	can catalyze the C-20 glycosyl of CK to extend a glucosyl to produce Gypenoside LXXV
B11	can catalyze the extension of a glucosyl at the C-20 glycosyl to generate Gypenoside LXXV

Test: In vitro transglycosylation at C-20, Rd as glycosyl acceptor, UDP-glucose as donor
Assay type: biochemical
Details: crude enzyme (E. coli lysate supernatant); TLC/HPLC, FIG. 2, 3, 11
Source text: as §1

Molecule	product formation from Rd and UDP-glucose (Rb1)
B2	can catalyze the extension of a glucosyl at the C-20 glycosyl of Rd to generate Rb1
B3	can catalyze the extension of a glucosyl at the C-20 glycosyl of Rd to generate Rb1
B4	can catalyze the extension of a glucosyl at the C-20 glycosyl of Rd to generate Rb1
B5	can catalyze the extension of a glucosyl at the C-20 glycosyl of Rd to generate Rb1
B6	can catalyze the extension of a glucosyl at the C-20 glycosyl of Rd to generate Rb1
B7	can catalyze the extension of a glucosyl at the C-20 glycosyl of Rd to generate Rb1
B8	can catalyze the extension of a glucosyl at the C-20 glycosyl of Rd to generate Rb1
B9	can catalyze the extension of a glucosyl at the C-20 glycosyl of Rd to generate Rb1
B11	can catalyze the extension of a glucosyl at the C-20 glycosyl of Rd to generate Rb1
